For assay [1], the target named is mesothelin present on the cell membrane of mesothelin-expressing cancer cell lines (AsPC-1; OVCAR-3; NCI-H2052) (human) (UniProt Q13421). As to the kind of experiment: flow cytometry, phage clone on AsPC-1 cells, anti-M13-FITC.
Assay [2] shares this target. Kind of assay: flow cytometry, phage clone on AsPC-1 cells against control K562 cells. (Flow cytometry measures light scatter and fluorescence of single cells or particles in a stream.)
For assay [3], the target named is human mesothelin protein (MSLN, Acro Biosystems), conjugated to a histidine tag (human) (UniProt Q13421). As to the kind of experiment: ELISA, purified scFv on coated human mesothelin protein (1 ug/mL), anti-StrepMAB HRP. Background: An ELISA detects its analyte on a solid surface through an enzyme-linked reagent.

For orientation: EC50 means the midpoint of the concentration-response curve. Higher therefore signals a less potent agent.

B1: MSLN34 phage clone (scFv displayed on phage, KBIO human synthetic scFv phage display library KscFv-I) (scFv, not shown: large carriers; small tags and cut ends)
scFv: EVQLVESGGGLVQPGGSLRLSCAASGFTFSDYGMHWVRQAPGKGLEWVSSIYGSGGHTGYADSVKGRFTISRDNSKNTLYLQMNSLRAEDTAVYYCAKQHAYRYSYAFDVWGQGTLVTVSSGGGGSGGGGSGGGGSDIQMTQSPSSLSASVGDRVTITCRASQSISNWLNWYQQKPGKAPKLLIYATSSLQSGVPSRFSGSGSGTDFTLTISSLQPEDFATYYCQQSYSFPFTFGQGTKVEIK
modifications: displayed on M13 phage
Take B1: the relative peak shift value in assay [1] is more than 5%; in assay [2], 16.2%.

B2: anti-MSLN-scFv antibody MSLN34 (purified scFv from E. coli periplasm) (scFv, not shown: small tags and cut ends)
scFv: B1 scFv
B2 gave a concentration giving a half-maximal response (EC50) in assay [3] of 0.083 µM.

B3: MSLN37 phage clone (scFv displayed on phage, KBIO human synthetic scFv phage display library KscFv-I) (scFv, V domains shown)
VH: EVQLVESGGGLVQPGGSLRLSCAASGFTFSSYAMHWVRQAPGKGLEWVSGISGSGGTTYYADSVKGRFTISRDNSKNTLYLQMNSLRAEDTAVYYCAKEVEGQSQEYFDIWGQGTLVTVSS
VL: DIQMTQSPSSLSASVGDRVTITCRASQSIANYLNWYQQKPGKAPKLLIYAASNLQSGVPSRFSGSGSGTDFTLTISSLQPEDFATYYCQQSYSFPYTFGQGTKVEIK
In the case of B3, the values for the relative peak shift value in assay [1] and in assay [2] were more than 5% and 5.9%, respectively.

Source of the values: patent US20230151082A1.
